Patent US10370436B2, “Anti-pseudomonas Psl binding molecules and uses thereof” (priority 2011, dated 2019)

Columns and labels:
[1] = tested on: P. aeruginosa strain 9882-80 (O11); assay: OPK assay, strain 9882-80.lux; type: cell-based, Pseudomonas aeruginosa; conditions: strain 9882-80.lux (O11); FIG. 2B
Method: This example describes the evaluation of prioritized human IgG1 antibodies to promote OPK of P. aeruginosa. […] OPK assays were performed as described in (DiGiandomenico, A., et al., Infect Immun 72, 7012-7021 (2004)), with modifications. Briefly, assays were performed in 96-well plates using 0.025 ml of each OPK component; P. aeruginosa strains; diluted baby rabbit serum; differentiated HL-60 cells; and monoclonal antibody. In some OPK assays, luminescent P. aeruginosa strains, which were constructed as described (Choi, K. H., et al., Nat Methods 2, 443-448 (2005)), were used. Luminescent OPK assays were performed as described above but with determination of relative luciferase units (RLUs) using a Perkin Elmer ENVISION Multilabel plate reader (Perkin Elmer).
The ability of the WapR-004 and Cam-003 antibodies to mediate OPK activity against another clinically relevant O-antigen serotype strain, 9882-80.lux, was evaluated.

[2] = tested on: P. aeruginosa PAO1.lux association with A549 cells; assay: Cell attachment assay, PAO1.lux to A549 cells; type: cell-based, Pseudomonas aeruginosa; conditions: MOI of 10, FIG. 4, FIG. 9B
Method: Anti-Psl antibodies were added to a confluent monolayer of A549 cells (an adenocarcinoma human alveolar basal epithelial cell line) grown in opaque 96-well plates (Nunc Nunclon Delta). Log-phase luminescent P. aeruginosa PAO1 strain (PAO1.lux) was added at an MOI of 10. After incubation of PAO1.lux with A549 cells at 37° C. for 1 hour, the A549 cells were washed, followed by addition of LB+0.5% glucose. Bacteria were quantified following a brief incubation at 37° C. as performed in the OPK assay described in Example 2. Measurements from wells without A549 cells were used to correct for non-specific binding.

[3] = tested on: P. aeruginosa 6077 (O11-cytotoxic); assay: P. aeruginosa corneal infection (keratitis) model; type: in vivo, mice; conditions: versus negative control-treated animals, 24 hours after infection
Method: FIG. 8 (A-G): Anti-Psl monoclonal antibodies Cam-003 and WapR-004 are active in a P. aeruginosa keratitis model and thermal injury model. Mice were treated with a control IgG1 antibody or Cam-003 at 45 mg/kg (A, B) or 15 mg/kg (C, D) or PBS or a control IgG1 antibody or Cam-003 at 45 mg/kg or WapR-004 at 45 mg/kg or 15 mg/kg or 5 mg/kg (F, G) 24 hours prior to infection with 6077 (O11-cytotoxic—2×10^6 CFU). Immediately before infection, three 1 mm scratches were made on the left cornea of each animal followed by topical application of P. aeruginosa in a 5 μl inoculum. 24 hours after infection, the corneal pathology scores were calculated followed by removal of the eye for determination of viable CFU. Differences in pathology scores and viable CFU were determined by the Mann-Whitney U-test. (A) P=0.0001, (B) P<0.0001, (C) P=0.0003, (D) P=0.0015. (F) and (G) Cam-003 (45 mg/kg) vs. WapR-004 (45 mg/kg): P=0.018; Cam-003 (45 mg/kg) vs. WapR-004 (15 mg/kg): P=0.0025; WapR-004 (45 mg/kg) vs. WapR-004 (15 mg/kg): P=0.1331; WapR-004 (5 mg/kg) vs. Ctrl: P<0.0001. Results are representative of five independent experiments. (E) Survival analysis from Cam-003 and R347 treated CF-1 mice in a P. aeruginosa thermal injury model after 6077 infection (2×10^5 CFU) (log-rank: R347 vs. Cam-003 15 mg/kg, P=0.0094; R347 vs. Cam-003 5 mg/kg, P=0.0017). […]

B1: WapR-004: anti-Psl antibody, VH SEQ ID NO: 11 and VL SEQ ID NO: 12 (antibody, V domains shown)
VH: EVQLLESGPGLVKPSETLSLTCNVAGGSISPYYWTWIRQPPGKGLELIGYIHSSGYTDYNPSLKSRVTISGDTSKKQFSLHVSSVTAADTAVYFCARGDWDLLHALDIWGQGTLVTVSS
VL: EIVLTQSPSSLSTSVGDRVTITCRASQSIRSHLNWYQQKPGKAPKLLIYGASNLQSGVPSRFSGSGSGTDFTLTISSLQPEDFATYYCQQSYSFPLTFGGGTKLEIK
modifications: WapR-004 VH; WapR-004 & WarR-004RAD VL
OPK activity [1]: OPK activity extends to strain 9882-80
inhibition of association of PAO1.lux to A549 cells [2]: most active at inhibiting P. aeruginosa cell attachment to A549 lung epithelial cells
bacterial counts in total eye homogenates [3]: reduced bacterial counts
corneal pathology ([3]; FIGS. 8A-D, F-G): significantly less pathology
